We go through 5 molecules from PMC7027753, “Interaction of N‐acetyl‐L‐glutamate kinase with the PII signal transducer in the non‐photosynthetic alga Polytomella parva: Co‐evolution towards a hetero‐oligomeric enzyme” (The Febs Journal, 2019).

As usually defined, the EC50 is the concentration needed to bring the measured effect to its halfway point. Read a low EC50 as greater potency. One may read the stoichiometry N as the number of molecules, sites or subunits per partner or assembly. The term Kd denotes the free concentration of one partner at which half of the binding sites on the other are occupied at equilibrium, for simple one-to-one binding. As a reminder, the IC50 is the concentration at which inhibition is half-maximal. What is called Km is the concentration of substrate that gives half-maximal velocity. What is called kcat is the maximal rate divided by the concentration of active sites.

The target of series [1] is T1, PpaPII-CrNAGK complex.
T1 construct: gene NAGK; heterologous two-species complex, mixed equimolar: His6-CrNAGK and PpaPII from residue 50 with C-terminal Strep tag; NAGK holds arginine, PII holds glutamine
Kind of series: coupled pyruvate kinase / lactate dehydrogenase NADH assay, […] nm. Type of series: biochemical, Chlamydomonas reinhardtii (NAGK); Polytomella parva (PII). The following applies: activation of complex inhibited by 0.12 mM arginine; 50 mM NAG, 5 mM ATP, pH 7.5; Gln site in PII Q-loop, allosteric.

Series [2] deals with Chlamydomonas reinhardtii NAGK protein (Chlamydomonas reinhardtii). The series can be described thus: SEC-MALS; Superose 6 Increase 10/300 GL; 10 mM Tris pH 7.8, 300 mM NaCl, 2 mM MgCl2, 0.02% NaN3, 2% glycerol; proteins alone or PII mixed in excess with NAGK (4 : 1 monomeric concentrations), with or without 5 mM glutamine; fractions checked by SDS/PAGE. On the technique in general: Size exclusion chromatography separates by hydrodynamic size, large species first.

Series [3] deals with Polytomella parva PII protein (Polytomella parva). Described as above.
Series [4] has as its target Chlamydomonas reinhardtii NAGK protein (Chlamydomonas reinhardtii). Kind of series: SPR; His6-NAGK immobilised on a Ni2+-loaded NTA chip (FC2), strep-tagged PII injected as analyte (50-1000 nM), 25 °C, HBS (10 mM HEPES, 150 mM NaCl, 2 mM MgCl2, 0.005% NP-40, pH 7.5), FC2-FC1; without effector molecules; Kd estimated from ΔRU.
The target in series [5] is Polytomella parva N-acetyl-L-glutamate kinase (Polytomella parva) (UniProt A6XGV3). Described as above.
Another series addresses T2, CrPII-PpaNAGK complex (Polytomella parva, UniProt A0A2K3DLS9+A6XGV3).
T2 construct: heterologous two-species complex, mixed equimolar: His6-PpaNAGK from residue 41 and CrPII with C-terminal Strep tag; NAGK holds arginine, PII holds 2-oxoglutarate
The series can be described thus: coupled pyruvate kinase / lactate dehydrogenase NADH assay, […] nm. In kind it is biochemical.

The next series has as its target T3, CrPII-CrNAGK (Chlamydomonas reinhardtii, UniProt A8HPI1).
T3 construct: gene CHLRE_01g015000v5; His6-CrNAGK and CrPII with C-terminal Strep tag, mixed equimolar; E. coli expressed; with Nitrogen regulatory protein P-II, chloroplastic (PII signal transducer)
The series is described as above. Type of series: biochemical. The following applies: read-out: Arg-IC50.

Another series addresses T4, CrNAGK (Chlamydomonas reinhardtii, UniProt A8HPI1).
T4 construct: gene CHLRE_01g015000v5; N-terminal His6 tag, E. coli LEMO-21(DE3), Ni-NTA; hexamer
T4 sequence (A8HPI1 44-340): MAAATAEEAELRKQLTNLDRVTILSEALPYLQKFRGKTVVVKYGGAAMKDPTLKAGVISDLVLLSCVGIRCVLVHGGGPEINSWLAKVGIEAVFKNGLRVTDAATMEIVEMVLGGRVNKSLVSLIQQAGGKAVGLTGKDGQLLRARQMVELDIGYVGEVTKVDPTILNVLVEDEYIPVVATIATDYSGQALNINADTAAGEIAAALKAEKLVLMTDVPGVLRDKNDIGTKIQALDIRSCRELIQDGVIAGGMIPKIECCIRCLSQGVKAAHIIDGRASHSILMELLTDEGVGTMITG
Described as above. Type of series: biochemical.

Series [6] deals with T1, PpaPII-CrNAGK complex. Described as above. Type of series: biochemical, Chlamydomonas reinhardtii (NAGK); Polytomella parva (PII). The following applies: 50 mM NAG, 5 mM ATP, 20 mM MgCl2, pH 7.5; with PpaPII, no Gln; allosteric site of NAGK; unit implied in the sentence.
Substrate in the series “purified protein”: CC(=O)N[C@@H](CCC(=O)O)C(=O)O
The series can be described thus: purified protein. Type of series: biochemical, Polytomella parva. The following applies: 5 mM ATP, 20 mM MgCl2, 50 mM KCl, 50 mM imidazole pH 7.5, no arginine, no PII.

Series [7] deals with the molecule itself. Kind of series: SEC-MALS; Superose 6 Increase 10/300 GL; 10 mM Tris pH 7.8, 300 mM NaCl, 2 mM MgCl2, 0.02% NaN3, 2% glycerol; proteins alone or PII mixed in excess with NAGK (4 : 1 monomeric concentrations), with or without 5 mM glutamine; fractions checked by SDS/PAGE.

T2 sequence (A0A2K3DLS9 63-205, one chain of several): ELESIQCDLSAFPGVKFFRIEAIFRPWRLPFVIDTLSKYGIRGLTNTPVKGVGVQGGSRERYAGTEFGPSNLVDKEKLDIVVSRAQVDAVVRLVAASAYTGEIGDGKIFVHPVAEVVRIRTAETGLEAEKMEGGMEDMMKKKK

As to `NC(=O)CC[C@H](N)C(=O)O` [glutamine], at PpaPII-CrNAGK complex [1], it took 1100 µM to reach a half-maximal effect (EC50).
Regarding “Chlamydomonas reinhardtii NAGK protein (enzyme)”, in series [2], the stoichiometry N is 6.
Consider “Polytomella parva PII protein (natural protein)”, for which, in series [3], the stoichiometry N came to 3. In addition, in series [4], the Kd was 0.0863 µM. In series [5], the Kd is 0.0938 µM, the percent of PpaPII-PpaNAGK complex dissociation from the sensor chip at 330 sec after the end of the injection phase (RU at 110 sec taken as 100%) was 60.7% and the percent of PpaPII-PpaNAGK complex dissociation from the sensor chip at 660 sec after the end of the injection phase (RU at 110 sec taken as 100%) was 41.9%.
`N=C(N)NCCC[C@H](N)C(=O)O` [arginine]: the half-inhibitory concentration (IC50) against CrPII-PpaNAGK complex was 680 ± 150 µM; on CrPII-CrNAGK, 250 ± 10 µM; against CrNAGK, 120 ± 30 µM; on PpaPII-CrNAGK complex [6], 70 ± 10 µM.

B1: Polytomella parva N-acetyl-L-glutamate kinase (enzyme, UniProt A6XGV3 41-329, looked up)
chain: TSDKKELTNLDRVTILSEALPYLQKFRGKTIVIKYGGAAMKDPTLKAGVITDLVLLNCVGIRTVLVHGGGPEINSWLSKVGIKPNFKNGLRVTDSATMDIVEMVLGGRVNKSLVSLIQQAGGRGVGLTGKDGQLLKARQMTELDIGHVGEVTKVDPTILNVMVNDGYIPVVATIASDPAGQALNINADTAAGEIAAALKAKKLVLMTDVPGVLRDKNDIKTKIHSLDIRGCRELIKDGIIAGGMIPKIECCIRCLAQGVDAAHIVDGRAKHSILMELLTDEGVGTMITG
notes: the full-length polypeptide has 329 amino acids; The discussion gives the transit peptide as 1-21, the results and methods as 1-40; also called PpaNAGK; NAGK; not shown: His6, N-terminal, kept
In the case of B1, in “purified protein”, the Km amounted to 2350 ± 220 µM and the kcat was 211.5 ± 4.1 s⁻¹. Besides, in [7], the “stoichiometry N” value was 6.
